Assay results from patent US20210395318A1 (Molecular Partners, published 2021).
Values belong to the binder of their own block, whether it stands above or below them.

Legend:
Experiment in all cases: cell-based or functional assay
[1] = molecular target: T1, human CD40 on primary human B cells or human monocyte-derived dendritic cells (human, UniProt P25942 21-277)
[2] = molecular target: T1, human CD40 on primary human B cells or …; remark: listed apart in the source
[3] = molecular target: T1, human CD40 on primary human B cells or …; remark: listed apart in the source
[4] = molecular target: T1, human CD40 on primary human B cells or …; remark: listed apart in the source

T1 sequence (P25942 21-277 H80K/K81H limits assumed): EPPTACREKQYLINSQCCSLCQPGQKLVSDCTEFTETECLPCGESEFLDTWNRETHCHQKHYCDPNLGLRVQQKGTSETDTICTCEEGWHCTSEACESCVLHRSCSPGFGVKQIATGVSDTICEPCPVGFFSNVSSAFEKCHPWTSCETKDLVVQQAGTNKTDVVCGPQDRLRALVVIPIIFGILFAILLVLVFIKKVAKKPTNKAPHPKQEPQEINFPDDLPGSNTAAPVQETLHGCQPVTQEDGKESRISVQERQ

Efficacy [MFI at highest dose], MFI CD86, human B cells with WT-CHO cells (no FAP), w HSA [1]: 299 MFI | Efficacy [MFI at highest dose], MFI CD86, human B cells with WT-CHO cells (no FAP), w/o HSA [1]: 291 MFI | Efficacy at highest dose, % CD86, human B cells with WT-CHO cells (no FAP), w HSA [1]: 13.7% | Efficacy at highest dose, % CD86, human B cells with WT-CHO cells (no FAP), w/o HSA [1]: 12.5% | Efficacy [MFI at highest dose], MFI CD86, human B cells with FAP-CHO cells, w HSA [2]: 799 MFI | Efficacy [MFI at highest dose], MFI CD86, human B cells with FAP-CHO cells, w/o HSA [2]: 1640 MFI | Efficacy at highest dose, % CD86, human B cells with FAP-CHO cells, w HSA [2]: 27% | Efficacy at highest dose, % CD86, human B cells with FAP-CHO cells, w/o HSA [2]: 43.4% | EC50, % CD86, human B cells with FAP-CHO cells, w HSA [3]: 72.3 nM | EC50, % CD86, human B cells with FAP-CHO cells, w/o HSA [3]: 11.4 nM | EC50, MFI CD86, human B cells with FAP-CHO cells, w HSA [3]: 52 nM | EC50, MFI CD86, human B cells with FAP-CHO cells, w/o HSA [3]: 28.9 nM
B1: SMA087 (designed binder)
chain: MRGSHHHHHHGSDLGKKLLEAARAGQDDEVRELLKAGADVNAKDYFSHTPLHLAARNGHLKIVEVLLKAGADVNAKDFAGKTPLHLAAADGHLEIVEVLLKAGADVNAQDIFGKTPADIAADAGHEDIAEVLQKAAGSPTPTPTTPTPTPTTPTPTPTGSDLGEKLLVAALYGQDDEVRELLKAGADVNAKDQWGLTPLHKAALQGHLEIVEVLLKAGADVNAKDERGHTPLHWAARFGHLEIVEVLLKAGADVNAQDQKGYTPADLAALWGHEDIAEVLQKAAGSPTPTPTTPTPTPTTPTPTPTGSDLGKKLLQAARAGQLDEVRELLKAGADVNAKDTWGFTPLHIAAESGHLEIVEVLLKAGADVNAKDVQGRTPLHIAAHSGHLEIVEVLLKAGADVNAKDFRGWTPLHLAAWSGHLEIVEILLKAGADVNAQDKSGKTPADLAARAGHQDIAEVLQKAA

Efficacy [MFI at highest dose], MFI CD86, human B cells with WT-CHO cells (no FAP), w/o HSA [1]: 252 MFI | Efficacy at highest dose, % CD86, human B cells with WT-CHO cells (no FAP), w/o HSA [1]: 46% | Efficacy [MFI at highest dose], MFI CD86, human B cells with FAP-CHO cells, w/o HSA [2]: 6270 MFI | Efficacy at highest dose, % CD86, human B cells with FAP-CHO cells, w/o HSA [2]: 86.8% | EC50, % CD86, human B cells with FAP-CHO cells, w/o HSA [3]: 0.23 nM | EC50, MFI CD86, human B cells with FAP-CHO cells, w/o HSA [3]: 0.74 nM | fold increase of efficacy against SMA014, CD86 upregulation on human B cells with FAP expressing CHO cells [4]: 2 fold | fold increase of potency against SMA014, CD86 upregulation on human B cells with FAP expressing CHO cells [4]: 20 fold
B2: SMA104 (designed binder)
chain: MRGSHHHHHHGSDLGEKLLVAALYGQDDEVRELLKAGADVNAKDQWGLTPLHKAALQGHLEIVEVLLKAGADVNAKDERGHTPLHWAARFGHLEIVEVLLKAGADVNAQDQKGYTPADLAALWGHEDIAEVLQKAAGSPTPTPTTPTPTPTTPTPTPTGSDLGKKLLQAARAGQLDEVRELLKAGADVNAKDTWGFTPLHIAAESGHLEIVEVLLKAGADVNAKDVQGRTPLHIAAHSGHLEIVEVLLKAGADVNAKDFRGWTPLHLAAWSGHLEIVEILLKAGADVNAQDKSGKTPADLAARAGHQDIAEVLQKAAGSPTPTPTTPTPTPTTPTPTPTGSDLGKKLLQAARAGQLDEVRELLKAGADVNAKDTWGFTPLHIAAESGHLEIVEVLLKAGADVNAKDVQGRTPLHIAAHSGHLEIVEVLLKAGADVNAKDFRGWTPLHLAAWSGHLEIVEILLKAGADVNAQDKSGKTPADLAARAGHQDIAEVLQKAA
